# Data reported in patent publication US20100135997A1 (MEDGENE, published 2010).
# Positions count from the first letter of the chain named.
# B1: SEQ ID NO 67 (receptor)
# chain: MHLPKPTLWAEPGSVITMDQPVTLRCQGGQETQEYRLYREKKTAPWITRIPQELVKKGQFPIPSITWEHAGRYRCYYGSDTSQWSASSDPLELVVTGVYIKPTLSAQPSPVVNSGGNVTLQCDSQVAFDGFILCKEGEDEHPQCLNSQPHARGSSRAIFSVGPVSPSRRWWYRCYAYDSNSPYEWSLPSDLLELDVDGC
# notes: mutated soluble two domain ILT-2
# B2: SEQ ID NO 117 (receptor)
# chain: MHLPKPTLWAEPGSVITLESPVTLRCQGGQETQEYRLYREKKTAPWITRIPQELVKKGQFPIPSITWEHAGRYRCYYGSDTSQWSASSDPLELVVTGVYIKPTLSAQPSPVVNSGGNVTLQCDSQVAFDGFILCKEGEDEHPQCLNSQPHARGSSRAIFSVGPVSPSRRWWYRCYAYDSNSPYEWSLPSDLLELDVDG
# notes: as for B1
# B3: SEQ ID NO 109 (receptor)
# chain: B2 chain with L18M, E19D, S20Q
# notes: as for B1
# B4: SEQ ID NO 125 (receptor)
# chain: B2 chain with L18M, E19D, S20Q, I158E
# notes: as for B1
# B5: SEQ ID NO 122 (receptor)
# chain: B2 chain with L18M, E19D, S20Q, S79T, D80Q
# notes: as for B1
# B6: SEQ ID NO 126 (receptor)
# chain: B2 chain with L18M, E19D, S20Q, L187D
# notes: as for B1
# B7: SEQ ID NO 120 (receptor)
# chain: MHLPKPTLWAEPGSVITMDQPVTLRCQGGQETQEYRLYREKKTAPWITRIPQELVKKGQFPIPSITWEHAGRYRCVIQRGTAGRSESSDPLELVVTGVYIKPTLSAQPSPVVNSGGNVTLQCDSQVAFDGFILCKEGEDEHPQCLNSQPHARGSSRAIFSVGPVSPSRRWWYRCYAYDSNSPYEWSLPSDLLELDVDG
# notes: as for B1
# B8: SEQ ID NO 121 (receptor)
# chain: B7 chain with V76Y, I77Y, Q78G, R79G, G80Q, T81E, A82G, G83A
# notes: as for B1
# B9: SEQ ID NO 118 (receptor)
# chain: B7 chain with V76Y, I77Y, Q78G, R79T, G80Q
# notes: as for B1
# B10: SEQ ID NO 119 (receptor)
# chain: B7 chain with V76M, I77Q, Q78Y, R79T, G80L
# notes: as for B1
# B11: SEQ ID NO 127 (receptor)
# chain: B2 chain with L18M, E19D, S20Q, C134S, C144S
# notes: as for B1
# B12: SEQ ID NO 124 (receptor)
# chain: B2 chain with L18M, E19D, S20Q, L145D
# notes: as for B1
# B13: SEQ ID NO 60 (receptor)
# chain: MGHLPKPTLWAEPGSVITMDQPVTLRCQGGQETQQYRLYREKKTAPWITRIPQELVKKGQFPIPSITWEHAGRYRCYYGSDTRQWSASSDPLELVVTGVYIKPTLSAQPSPVVNSGGNVTLQCDSQVAFDGFILCKEGEDDHPQCLNSQPHARGSSRAIFSVGPVSPSRRWRYRCYAYDSNSPYEWTRGSDLLELDVDG
# notes: as for B1
# B14: SEQ ID NO 107 (receptor)
# chain: MGHLPKPTLWAEPGSVITMDQPVTLRCQGGQETQEYRLYREKKTAPWITRIPQELVKKGQFPIPSITWEHAGRYRCIGRSQTSQWSASSDPLELVVTGIYLAPTLSAQPSPVVNSGGNVTLQCDSQVAFDGFILCKEGEDEHPQCLNSQPHARGSSRAIFSVGPVSPSRRWWYRCYAYDSNSPYEWSLPSDLLELLVL
# notes: as for B1
# B15: SEQ ID NO 108 (receptor)
# chain: B14 chain with M19L, D20G
# notes: as for B1
# B16: soluble truncated variant of the Wild-Type ILT-2 molecule (domains D1 and D2) (receptor)
# chain: MGHLPKPTLWAEPGSVITQGSPVTLRCQGGQETQEYRLYREKKTAPWITRIPQELVKKGQFPIPSITWEHAGRYRCYYGSDTAGRSESSDPLELVVTGAYIKPTLSAQPSPVVNSGGNVTLQCDSQVAFDGFILCKEGEDEHPQCLNSQPHARGSSRAIFSVGPVSPSRRWWYRCYAYDSNSPYEWSLPSDLLELLVL
# notes: the entry carries the N-terminal Met used for bacterial expression; also called soluble wild-type ILT-2; soluble variant of wild-type ILT-2
# Molecular target: T1, HLA-A*0201 loaded with the Carcinoembryonic antigen (CEA)-derived … peptide (biotin on the C-terminal biotinylation tag)
# T1 construct: Soluble, biotinylated, immobilised on a streptavidin chip
# Test: Biacore SPR
# Procedure, shortened: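 Surface plasmon resonance: soluble ILT-like molecule flowed at constant rate over flow cells bearing biotin-tag-captured peptide–MHC. Binding followed as RU change to derive affinity and kinetics.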
Kd [nM],koff [s⁻¹],Binder
≤ 1000,≤ 2,B1
≤ 1000,≤ 2,B2
≤ 1000,≤ 2,B3
≤ 1000,≤ 2,B4
≤ 1000,≤ 2,B5
≤ 1000,≤ 2,B6
≤ 1000,≤ 2,B7
≤ 1000,≤ 2,B8
≤ 1000,≤ 2,B9
≤ 1000,≤ 2,B10
≤ 1000,≤ 2,B11
≤ 1000,≤ 2,B12
≤ 1000,≤ 2,B13
≤ 1000,≤ 2,B14
≤ 1000,≤ 2,B15

# Molecular target: T1, HLA-A*0201 loaded with the …
# Test: Biacore SPR, biotinylated pMHC immobilised on streptavidin
Kd [nM],koff [s⁻¹],Binder
~6000,2.4,B16
